# Assay results taken from IntAct's records for PubMed 10814541.
# B1: Thioredoxin (Homo sapiens), P10599 (parent)
# chain: MVKQIESKTAFQEALDAAGDKLVVVDFSATWCGPCKMIKPFFHSLSEKYSNVIFLEVDVDDCQDVASECEVKCMPTFQFFKKGQKVGEFSGANKEKLEATINELV
# partner: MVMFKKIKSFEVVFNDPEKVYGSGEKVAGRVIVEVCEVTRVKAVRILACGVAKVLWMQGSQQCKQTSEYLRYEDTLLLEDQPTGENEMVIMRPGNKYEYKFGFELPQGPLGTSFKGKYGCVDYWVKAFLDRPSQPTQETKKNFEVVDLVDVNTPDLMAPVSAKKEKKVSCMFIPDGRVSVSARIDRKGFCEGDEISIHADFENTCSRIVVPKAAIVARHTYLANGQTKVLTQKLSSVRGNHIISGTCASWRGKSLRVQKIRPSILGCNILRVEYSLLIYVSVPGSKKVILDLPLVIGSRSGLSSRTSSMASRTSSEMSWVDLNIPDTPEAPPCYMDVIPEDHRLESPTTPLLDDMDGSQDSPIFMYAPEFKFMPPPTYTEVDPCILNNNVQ
# Variants of: B1
# Details: with txnip_human TXNIP
row,effect of a mutation on the interaction,Variant
1,decreasing interaction,MVKQIESKTAFQEALDAAGDKLVVVDFSATWSGPSKMIKPFFHSLSEKYSNVIFLEVDVDDCQDVASECEVKCMPTFQFFKKGQKVGEFSGANKEKLEATINELV [C32S;C35S]
